From article PMC4330390 (Nucleic Acids Research, 2015)

Key:
[1] = system: NXF1ΔNΔUBA+3A;NXT1 (p15) (Homo sapiens;Homo sapiens); assay: ITC
[2] = target: the molecule itself; assay: crystal structure; crystals of the purified NXF1^ΔNΔUBA:NXT1 complex, 18°C, 9% PEG 6000, 1 M LiCl, 0.1 M Na citrate pH 5.1; P1, 3.4 Å, two copies of the complex in the asymmetric unit

Row | Molecule | binding signal (fold weaker than wild type) [1] | stoichiometry N [2]
1 | full-length CTE-RNA | 2.5 | –
2 | NXF1^ΔNΔUBA:NXT1 complex (complex, human, also called NXF1:NXT1; TAP:p15) chain 1: VRRDRAPPERGGAGTSQDGTSKNWFKITIPYGRKYDKAWLLSMIQSKCSVPFTPIEFHYENTRAQFFVEDASTASALKAVNYKILDRENRRISIIINSSAPPHTILNELKPEQVEQLKLIMSKRYDGSQQALDLKGLRSDPDLVAQNIDVVLNRRSCMAATLRIIEENIPELLSLNLSNNRLYRLDDMSSIVQKAPNLKILNLSGNELKSERELDKIKGLKLEELWLDGNSLCDTFRDQSTYISAIRERFPKLLRLDGHELPPPIAFDVEAPTTLPPCKGSYFGTENLKSLVLHFLQQYYAIYDSGDRQGLLDAYHDGACCSLSIPFIPQNPARSSLAEYFKDSRNVKKLKDPTLRFRLLKHTRLNVVAFLNELPKTQHDVNSFVVDISAQTSTLLCFSVNGVFKEVDGKSRDSLRAFTRTFIAVPASNSGLCIVNDELFVRNASSEEIQRAFAMPAPTP chain 2: ASVDFKTYVDQACRAAEEFVNVYYTTMDKRRRLLSRLYMGTATLVWNGNAVSGQESLSEFFEMLPSSEFQISVVDCQPVHDEATPSQTTVLVVICGSVKFEGNKQRDFNQNFILTAQASPSNTVWKIASDCFRFQDWAS | – | 2
